Test results reported in US20240034786A1 (WUXI BIOLOGICS IRELAND, published 2024).

Tests used:
[1] = target: T1, Cyno P-cadherin on W319-CHOK1.cynoPro1.FL cells (cynomolgus, UniProt A0A2K5WPN9 108-829); assay: FACS on CHOK1 cells transiently expressing cyno P-cadherin
T1 construct: whole, on cells; also called cynomolgus P-cadherin; W391-CHOK1.cynoPro1.FL (transient)
Method: Binding of the test antibodies to P-cadherin expressed on cells was determined by flow cytometry analysis. […] 1×10⁵ cells/well (100 μL) were added to each well of a 96-well U-plate (Corning, #3799) and centrifuged at 1500 rpm (Eppendorf, #5810R) for 5 minutes before removing the supernatant. Antibodies serially diluted in 1% BSA/1×PBS (Ca+/Mg+) were added at 100 μL/well to the pelleted cells and incubated at 4° C. for 1 hour. Anon-related hIgG1 antibody was used as an isotype control. Cells were washed two times with 180 μL/well of 1% BSA/1×PBS (Ca+/Mg+) by centrifugation at 1500 rpm for 5 minutes at 4° C. Pelleted cells were resuspended in 100 μL/well Alexa647 conjugated Goat anti-human IgG Fc (Jackson, #109-605-098) 1:500 diluted in 1% BSA/1×PBS (Ca+/Mg+) for 30 minutes at 4° C. in the dark. Cells were then washed two times as described above. After the final wash, cells were resuspended in 100 μL 1% BSA/1×PBS (Ca+/Mg+) and fluorescence values were measured with a FACS Canto II cytometer (BD Biosciences). The amount of cell surface bound anti-P-cadherin antibody was assessed by measuring the mean fluorescence (MFI). The FACS raw data were analyzed by FlowJo software, wells containing no antibody or secondary antibody only were used to establish background fluorescence. […]
Binding of the test antibodies to cynomolgus P-cadherin expressed on cells was determined by flow cytometry analysis. […]

[2] = target: T2, Human P-cadherin on cells (human, UniProt P22223 108-829); assay: FACS on NCI-H1650 cells
T2 construct: whole, on cells; Endogenous P-cadherin on tumour cell lines; also called hPro1
Method: Binding of the test antibodies to P-cadherin expressed on cells was determined by flow cytometry analysis. […] 1×10⁵ cells/well (100 μL) were added to each well of a 96-well U-plate (Corning, #3799) and centrifuged at 1500 rpm (Eppendorf, #5810R) for 5 minutes before removing the supernatant. Antibodies serially diluted in 1% BSA/1×PBS (Ca+/Mg+) were added at 100 μL/well to the pelleted cells and incubated at 4° C. for 1 hour. Anon-related hIgG1 antibody was used as an isotype control. Cells were washed two times with 180 μL/well of 1% BSA/1×PBS (Ca+/Mg+) by centrifugation at 1500 rpm for 5 minutes at 4° C. Pelleted cells were resuspended in 100 μL/well Alexa647 conjugated Goat anti-human IgG Fc (Jackson, #109-605-098) 1:500 diluted in 1% BSA/1×PBS (Ca+/Mg+) for 30 minutes at 4° C. in the dark. Cells were then washed two times as described above. After the final wash, cells were resuspended in 100 μL 1% BSA/1×PBS (Ca+/Mg+) and fluorescence values were measured with a FACS Canto II cytometer (BD Biosciences). The amount of cell surface bound anti-P-cadherin antibody was assessed by measuring the mean fluorescence (MFI). The FACS raw data were analyzed by FlowJo software, wells containing no antibody or secondary antibody only were used to establish background fluorescence. Binding EC50 values were obtained by the four-parameter non-linear regression analysis using GraphPad Prism6 software.

[3] = target: T2, Human P-cadherin on cells; assay: FACS on HCT-116 cells, antibody kept in human serum at 37 C, Day 7
Method: The antibody stability in human serum was tested by FACS. Briefly, human serum was freshly isolated by centrifuging the fresh blood twice at 4000 rpm for 10 minutes. […] As a control, antibodies serum mix was frozen immediately without 37° C. incubation. For the FACS analysis, the samples from different time points were free-thawed simultaneously at 4° C. […] The cells were washed twice with 1% BSA/1×PBS (Ca+/Mg+). Alexa647 conjugated Goat anti-human IgG Fc (Jackson, #109-605-098) 1:500 diluted in 1% BSA/1×PBS (Ca+/Mg+) were added to the cells and incubated at 4° C. for 30 minutes. Cells were washed twice in the same buffer and the mean fluorescence (MFI) of stained cells was measured using a FACS Canto II cytometer (BD Biosciences) and analyzed by FlowJo. Wells containing no antibody or secondary antibody only were used to establish background fluorescence. Four-parameter non-linear regression analysis was used to obtain EC50 values for cell binding using GraphPad Prism6 software.

T2 sequence (P22223 108-829): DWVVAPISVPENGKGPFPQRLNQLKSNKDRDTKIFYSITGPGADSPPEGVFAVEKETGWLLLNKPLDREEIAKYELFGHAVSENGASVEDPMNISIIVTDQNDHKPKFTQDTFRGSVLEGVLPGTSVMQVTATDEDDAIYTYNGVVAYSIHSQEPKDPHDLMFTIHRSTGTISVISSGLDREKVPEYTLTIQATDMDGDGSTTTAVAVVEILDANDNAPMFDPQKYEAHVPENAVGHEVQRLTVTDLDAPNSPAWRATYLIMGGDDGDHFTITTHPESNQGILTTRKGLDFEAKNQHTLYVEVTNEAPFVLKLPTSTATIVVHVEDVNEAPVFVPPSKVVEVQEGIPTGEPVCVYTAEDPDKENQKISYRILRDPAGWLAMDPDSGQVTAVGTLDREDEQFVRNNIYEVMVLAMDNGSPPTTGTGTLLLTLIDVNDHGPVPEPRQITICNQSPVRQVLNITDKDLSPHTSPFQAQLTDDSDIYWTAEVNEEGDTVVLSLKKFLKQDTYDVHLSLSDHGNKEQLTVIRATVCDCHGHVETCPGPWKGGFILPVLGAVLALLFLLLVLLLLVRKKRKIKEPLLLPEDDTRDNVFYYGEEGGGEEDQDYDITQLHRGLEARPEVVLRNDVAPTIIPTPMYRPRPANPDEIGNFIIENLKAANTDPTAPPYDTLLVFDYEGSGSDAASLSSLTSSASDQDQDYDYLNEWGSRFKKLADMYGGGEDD

B1: W3195-1.53.1-p1-uIgG1L (antibody)
heavy: not shown
light: SYELTQPPSVSVSPGQTAQITCSGDKLGDKFASWYQQKSGQSPVVVIYQDNKRPSGFPERFSGSNSGNTATLTISGTQAMDEADYYCQAWDSSIVVFGGGTKLTVLGQPKAAPSVTLFPPSSEELQANKATLVCLISDFYPGAVTVAWKADSSPVKAGVETTTPSKQSNNKYAASSYLSLTPEQWKSHRSYSCQVTHEGSTVEKTVAPTECS
notes: also called W3195-p1 antibody
EC50 [1]: 0.095 nM | EC50 [2]: 0.22 nM | EC50 [3]: 0.21 nM
